Measured values as given in paper doi:10.1101/2023.01.26.525693.

Key:
[1] = biological target: MDM2_(D.rerio) SWIB domain (zebra fish (Danio rerio)); experiment: stopped-flow spectroscopy
[2] = biological target: MDM2_(L.camtschaticum) SWIB domain (arctic lamprey (Lethenteron camtschaticum)); experiment: fluorescence polarisation
[3] = biological target: MDM2_(M.trossulus) SWIB domain (bay mussel (Mytilus trossulus)); experiment: fluorescence polarisation

p53TAD_(D.rerio)[14–27] (peptide) was tested, and the Kd [1] was 1.9 µM.

Work on p53TAD_(D.rerio)^N26L (peptide) yielded a Kd [1] of 0.34 µM.

For p53TAD_(D.rerio)^insertT[18] (peptide), the Kd [1] was 2.3 µM.

For p53TAD_(L.camtschaticum) (peptide), the Kd [2] was 250 µM.

p53TAD_(M.trossulus) (peptide) was tested, and the Kd [3] was 15 µM.

In the case of p73TAD_(D.rerio) (peptide), the Kd [1] is reported as 0.12 µM.
